The results in this text go back to article PMC11106421, “Myosin VI in the nucleolus of neurosecretory PC12 cells: its involvement in the maintenance of nucleolar structure and ribosome organization” (Frontiers in Physiology, 2024).

In the experiment the target is T1, myosin VI (MVI), endogenous in PC12 cells (rat (endogenous in PC12), UniProt D4A5I9 1-1285).
T1 construct: myosin VI heavy chain, endogenous in PC12 cells; also called unconventional myosin VI; source: endogenous, PC12 cells (lysate or fixed cells)
The experiment can be described thus: proximity ligation; Duolink in situ PLA on fixed PC12 cells, rabbit anti-MVI with mouse monoclonal antibodies to the partner; foci counted per nucleus. To be noted: partners not purified.

T1 sequence (D4A5I9 entry or part of it): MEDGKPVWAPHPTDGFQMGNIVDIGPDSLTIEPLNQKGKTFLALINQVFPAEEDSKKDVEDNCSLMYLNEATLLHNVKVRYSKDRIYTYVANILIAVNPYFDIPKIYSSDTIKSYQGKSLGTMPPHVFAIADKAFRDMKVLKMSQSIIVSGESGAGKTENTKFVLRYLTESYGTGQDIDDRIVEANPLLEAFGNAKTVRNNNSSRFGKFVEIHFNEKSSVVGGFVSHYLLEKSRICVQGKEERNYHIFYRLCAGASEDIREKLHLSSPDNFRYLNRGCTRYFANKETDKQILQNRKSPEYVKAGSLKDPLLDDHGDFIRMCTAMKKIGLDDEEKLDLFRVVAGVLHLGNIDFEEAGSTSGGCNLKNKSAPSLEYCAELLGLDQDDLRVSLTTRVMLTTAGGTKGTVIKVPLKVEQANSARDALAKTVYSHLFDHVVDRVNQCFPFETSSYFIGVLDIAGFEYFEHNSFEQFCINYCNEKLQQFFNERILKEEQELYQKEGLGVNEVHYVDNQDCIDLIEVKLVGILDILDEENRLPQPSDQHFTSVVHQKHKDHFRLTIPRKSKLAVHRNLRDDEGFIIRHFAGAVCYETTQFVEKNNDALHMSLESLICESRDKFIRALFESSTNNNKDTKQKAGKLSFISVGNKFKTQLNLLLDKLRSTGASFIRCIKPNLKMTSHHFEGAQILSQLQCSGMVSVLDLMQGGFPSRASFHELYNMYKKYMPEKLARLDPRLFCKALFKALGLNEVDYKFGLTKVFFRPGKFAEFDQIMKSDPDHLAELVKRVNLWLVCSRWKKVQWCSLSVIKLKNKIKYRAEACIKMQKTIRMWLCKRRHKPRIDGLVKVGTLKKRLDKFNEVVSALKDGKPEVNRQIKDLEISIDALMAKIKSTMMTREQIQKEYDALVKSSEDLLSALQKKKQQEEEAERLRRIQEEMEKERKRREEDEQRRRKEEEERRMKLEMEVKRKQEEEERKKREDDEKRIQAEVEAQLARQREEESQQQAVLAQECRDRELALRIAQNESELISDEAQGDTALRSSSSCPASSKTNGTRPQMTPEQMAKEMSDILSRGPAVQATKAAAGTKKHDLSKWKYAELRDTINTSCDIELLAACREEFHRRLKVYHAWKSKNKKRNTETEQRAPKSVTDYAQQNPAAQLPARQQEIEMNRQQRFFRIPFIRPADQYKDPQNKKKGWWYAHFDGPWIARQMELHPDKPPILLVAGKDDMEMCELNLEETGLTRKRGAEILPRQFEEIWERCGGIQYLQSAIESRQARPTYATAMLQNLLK

B1: B23 (also termed nucleophosmin, NPM1) (natural protein, rat (endogenous in PC12), UniProt P13084 1-292, looked up)
chain: MEDSMDMDMSPLRPQNYLFGCELKADKDYHFKVDNDENEHQLSLRTVSLGAGAKDELHIVEAEAMNYEGSPIKVTLATLKMSVQPTVSLGGFEITPPVVLRLKCGSGPVHISGQHLVAVEEDAESEDEDEEDVKLLGMSGKRSAPGGGNKVPQKKVKLDEDDDEDDEDDEDDEDDDDDDFDEEETEEKVPVKKSVRDTPAKNAQKSNQNGKDLKPSTPRSKGQESFKKQEKTPKTPKGPSSVEDIKAKMQASIEKGGSLPKVEAKFINYVKNCFRMTDQEAIQDLWQWRKSL
notes: B23 / nucleophosmin, endogenous in PC12 cells, detected with a mouse monoclonal anti-B23 antibody; source: endogenous, PC12 cells (lysate or fixed cells)
B1: the “fraction of PLA foci-positive nuclei” value was about 57%.

B2: UBF (upstream binding factor) (natural protein, rat (endogenous in PC12), UniProt P25977 1-764, looked up)
chain: MNGEADCPTDLEMAAPKGQDRWSQEDMLTLLECMKNNLPSNDSSKFKTTESHMDWEKVAFKDFSGDMCKLKWVEISNEVRKFRTLTELILDAQEHVKNPYKGKKLKKHPDFPKKPLTPYFRFFMEKRAKYAKLHPEMSNLDLTKILSKKYKELPEKKKMKYIQDFQREKQEFERNLARFREDHPDLIQNAKKSDIPEKPKTPQQLWYTHEKKVYLKVRPDATTKEVKDSLGKQWSQLSDKKRLKWIHKALEQRKEYEEIMRDYIQKHPELNISEEGITKSTLTKAERQLKDKFDGRPTKPPPNSYSLYCAELMANMKDVPSTERMVLCSQQWKLLSQKEKDAYHKKCDQKKKDYEVELLRFLESLPEEEQQRVLGEEKMLNINKKQTTSPASKKPSQEGGKGGSEKPKRPVSAMFIFSEEKRRQLQEERPELSESELTRLLARMWNDLSEKKKAKYKAREAALKAQSERKPGGEREDRGKLPESPKRAEEIWQQSVIGDYLARFKNDRVKALKAMEMTWNNMEKKEKLMWIKKAAEDQKRYERELSEMRAPPAATNSSKKMKFQGEPKKPPMNGYQKFSQELLSNGELNHLPLKERMVEIGSRWQRISQSQKEHYKKLAEEQQRQYKVHLDLWVKSLSPQDRAAYKEYISNKRKNMTKLRGPNPKSSRTTLQSKSESEEDDDEEDDDDDDEEEEEDDENGDSSEDGGDSSESSSEDESEDGDENEDDDDDEDDDEDDDEDEDNESEGSSSSSSSSGDSSDSDSN
notes: source: endogenous, PC12 cells (lysate or fixed cells)
For B2, the “fraction of PLA foci-positive nuclei” value was about 36%.

B3: fibrillarin (natural protein, rat (endogenous in PC12), UniProt P22509 1-327, looked up)
chain: MKPGFSPRGGGFGGRGGFGDRGGRGGGRGGRGGFGGGRGGFGGGGRGRGGGGGGFRGRGGGGGRGGGFQSGGGRGRGGGRGGKRGNQSGKNVMVEPHRHEGVFICRGKEDALVTKNLVPGESVYGEKRVSISEGDDKIEYRAWNPFRSKLAAAILGGVDQIHIKPGAKVLYLGAASGTTVSHVSDIVGPDGLVYAVEFSHRSGRDLINLAKKRTNIIPVIEDARHPHKYRMLIAMVDVIFADVAQPDQTRIVALNAHTFLRNGGHFVISIKANCIDSTASAEAVFASEVKKMQQENMKPQEQLTLEPYERDHAVVVGVYRPPPKAKN
notes: fibrillarin, endogenous in PC12 cells, detected with a mouse monoclonal anti-fibrillarin antibody; source: endogenous, PC12 cells (lysate or fixed cells)
On to B3, for which the “fraction of PLA foci-positive nuclei” value is about 65%.
